What was measured:
Assay in all cases: competition binding; FIG. 35A
[1] = molecular target: HLA-DRB1*1301 (human)
[2] = molecular target: HLA-DRB1*0301 (human)
[3] = molecular target: HLA-DRB1*1101 (human)
[4] = molecular target: HLA-DRB1*0101 (human)
[5] = molecular target: HLA-DRB1*0701 (human)
[6] = molecular target: HLA-DRB1*0401 (human)
[7] = molecular target: HLA-DRB1*1501 (human)

Row | Binder | IC50 [1] [µM] | IC50 [2] [µM] | IC50 [3] [µM] | IC50 [4] [µM] | IC50 [5] [µM] | IC50 [6] [µM] | IC50 [7] [µM]
1 | KIVFKNMASRPYSIY [SEQ ID NO: 3 (KIVFKNMASRPYSIY)] | 2.96 | 78.6 | 4.36 | 2.17 | 7.03 | 20.1 | 2.69
2 | ESNIMSTINGYVPES [SEQ ID NO: 5 (ESNIMSTINGYVPES)] | – | 80.5 | – | – | 2.79 | 96.4 | 4.22

Stronger by IC50 [7], values ahead:

Row | IC50 [1] [µM] | IC50 [2] [µM] | IC50 [3] [µM] | IC50 [4] [µM] | IC50 [5] [µM] | IC50 [6] [µM] | IC50 [7] [µM] | Binder
3 | 84.4 | – | 33.7 | < 1 | < 1 | 30.6 | < 1 | SHEFHAINGMIYSLP [SEQ ID NO: 7 (SHEFHAINGMIYSLP)]
4 | – | – | – | 1.92 | – | – | 2.02 | EKDIHSGLIGPLLI [SEQ ID NO: 6 (EKDIHSGLIGPLLI)]

Reference: patent US20210300985A1 (published 2021)
